This note sets out measurements from patent publication US20070224188A1.

The assay concerns the target biotin-labeled soluble FcRn. The assay is described as follows: FcRn ELISA pH 6.0. A general note: In an ELISA, binding on a coated surface is turned into a signal by an enzyme label.

anti-CD20 antibody, IgG1 Fc region, wild type (a, z), sequence (heavy, part): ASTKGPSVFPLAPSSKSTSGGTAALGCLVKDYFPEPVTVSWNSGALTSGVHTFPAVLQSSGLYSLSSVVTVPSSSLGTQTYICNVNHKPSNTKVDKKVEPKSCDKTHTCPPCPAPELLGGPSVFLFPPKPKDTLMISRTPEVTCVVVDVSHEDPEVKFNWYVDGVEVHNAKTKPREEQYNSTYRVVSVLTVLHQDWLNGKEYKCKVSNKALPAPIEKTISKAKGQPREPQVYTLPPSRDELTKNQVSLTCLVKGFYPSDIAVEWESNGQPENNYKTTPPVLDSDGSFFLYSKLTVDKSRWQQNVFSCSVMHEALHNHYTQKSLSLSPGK

anti-CD20 IgG1 T256R (antibody): the FcRn pH6.0 (% of wild type) worked out at 33.
For the substance anti-CD20 IgG1 256P430Q (antibody), the FcRn6.0 (% of wild type) amounted to 150.
As for anti-CD20 IgG1 R292L (antibody), the FcRn pH6.0 (% of wild type) was determined as 68.
Still for that read-out and setting: with anti-CD20 IgG1 K439H (antibody) the figure was 99; with anti-CD20 IgG1 Q438W (antibody), 164.
anti-CD20 IgG1 T256K (antibody) had a FcRn pH6.0 (% of wild type) of 31.
anti-CD20 IgG1 E269Q (antibody) registered a FcRn pH6.0 (% of wild type) of 98.
The same measure, in the same setting: with anti-CD20 IgG1 V279T (antibody) the figure was 265.
In turn, anti-CD20 IgG1 S254G (antibody) displayed a FcRn pH6.0 (% of wild type) of 7.
In turn, anti-CD20 IgG1 S440W (antibody) came in with a FcRn pH6.0 (% of wild type) of 85.
With anti-CD20 IgG1 Y373R (antibody), the FcRn pH6.0 (% of wild type) was determined as 107.
In turn, anti-CD20 IgG1 P247G (antibody) gave a FcRn pH6.0 (% of wild type) of 75.
With anti-CD20 IgG1 K248F (antibody), the FcRn pH6.0 (% of wild type) was 0.
The substance anti-CD20 IgG1 A339R (antibody) had a FcRn pH6.0 (% of wild type) of 82.
On the same count and under the same terms, for anti-CD20 IgG1 D249E (antibody) the value was 78; for anti-CD20 IgG1 E318T (antibody), 304.
anti-CD20 IgG1 S254Y (antibody) had a FcRn pH6.0 (% of wild type) of 0.
For anti-CD20 IgG1 G341L (antibody), the FcRn pH6.0 (% of wild type) was determined as 54.
In turn, anti-CD20 IgG1 D376Y (antibody) came in with a FcRn pH6.0 (% of wild type) of 53.
On the same count and under the same terms, for anti-CD20 IgG1 V279I (antibody) the value was 83; for anti-CD20 IgG1 P329Y (antibody), 107.
anti-CD20 IgG1 I332A (antibody) showed a FcRn pH6.0 (% of wild type) of 96.
On the same count and under the same terms, for anti-CD20 IgG1 S254F (antibody) the value was 0.
The same measure, in the same setting: with anti-CD20 IgG1 I332K (antibody) the figure was 146.
Turning to anti-CD20 IgG1 D376H (antibody), the FcRn pH6.0 (% of wild type) stood at 81.
On the same count and under the same terms, with anti-CD20 IgG1 F423N (antibody) the figure was 158; with anti-CD20 IgG1 P343M (antibody), 83; with anti-CD20 IgG1 E430H (antibody), 192.
Consider anti-CD20 IgG1 E283H (antibody), for which the FcRn pH6.0 (% of wild type) was found to be 206.
For anti-CD20 IgG1 Q311P (antibody), the FcRn pH6.0 (% of wild type) is 89.
As to anti-CD20 IgG1 D376R (antibody), the FcRn pH6.0 (% of wild type) came out at 103.
Still for that read-out and setting: for anti-CD20 IgG1 P343H (antibody) the value was 191.
For anti-CD20 IgG1 R255K (antibody), the FcRn pH6.0 (% of wild type) stood at 41.
As to anti-CD20 IgG1 P247W (antibody), the FcRn pH6.0 (% of wild type) was 0.
Consider anti-CD20 IgG1 Q311N (antibody), for which the FcRn pH6.0 (% of wild type) turned out to be 54.
Consider anti-CD20 IgG1 I332L (antibody), for which the FcRn pH6.0 (% of wild type) is 127.
As to anti-CD20 IgG1 I332Q (antibody), the FcRn pH6.0 (% of wild type) is 98.
As for anti-CD20 IgG1 V279K (antibody), the FcRn pH6.0 (% of wild type) stood at 79.
For the substance anti-CD20 IgG1 Y373H (antibody), the FcRn pH6.0 (% of wild type) turned out to be 100.
Same read-out and setting: for anti-CD20 IgG1 G341S (antibody) the value was 55.
Still for that read-out and setting: for anti-CD20 IgG1 E318V (antibody) the value was 114.
For the substance anti-CD20 IgG1 N315L (antibody), the FcRn pH6.0 (% of wild type) worked out at 103.
anti-CD20 IgG1 K439E (antibody) displayed a FcRn pH6.0 (% of wild type) of 94.
On the same count and under the same terms, for anti-CD20 IgG1 G316K (antibody) the value was 131.
On the same count and under the same terms, with anti-CD20 IgG1 P343A (antibody) the figure was 110; with anti-CD20 IgG1 E430Y (antibody), 126.
Still for that read-out and setting: with anti-CD20 IgG1 K317T (antibody) the figure was 49; with anti-CD20 IgG1 S254R (antibody), 14.
For anti-CD20 IgG1 S267I (antibody), the FcRn pH6.0 (% of wild type) amounted to 83.
Take anti-CD20 IgG1 T256P (antibody): the FcRn pH6.0 (% of wild type) turned out to be 190.
Consider anti-CD20 IgG1 256P311I (antibody), for which the FcRn6.0 (% of wild type) is 268.
Turning to anti-CD20 IgG1 I332F (antibody), the FcRn pH6.0 (% of wild type) was 108.
On to anti-CD20 IgG1 P257N (antibody), for which the FcRn pH6.0 (% of wild type) is 867.
Take anti-CD20 IgG1 268E332E (antibody): the FcRn6.0 (% of wild type) is 88.
As for anti-CD20 IgG1 E380S (antibody), the FcRn pH6.0 (% of wild type) was determined as 230.
Substance anti-CD20 IgG1 D376L (antibody) had a FcRn pH6.0 (% of wild type) of 78.
Same read-out and setting: for anti-CD20 IgG1 S424H (antibody) the value was 97; for anti-CD20 IgG1 R292I (antibody), 56; for anti-CD20 IgG1 A339Q (antibody), 102.
In the case of anti-CD20 IgG1 E382P (antibody), the FcRn pH6.0 (% of wild type) came out at 122.
In turn, anti-CD20 IgG1 S375R (antibody) came in with a FcRn pH6.0 (% of wild type) of 595.
In turn, anti-CD20 IgG1 S440Q (antibody) gave a FcRn pH6.0 (% of wild type) of 81.
Consider anti-CD20 IgG1 272R286F (antibody), for which the FcRn6.0 (% of wild type) came out at 338.
Substance anti-CD20 IgG1 D376V (antibody) returned a FcRn pH6.0 (% of wild type) of 251.
Substance “anti-CD20 antibody, IgG1 Fc region, wild type (a, z)” had a FcRn6.0 (% of wild type) of 100 and a FcRn pH6.0 (% of wild type) of 100.
anti-CD20 IgG1 I332H (antibody) displayed a FcRn pH6.0 (% of wild type) of 129.
The substance anti-CD20 IgG1 Q311E (antibody) returned a FcRn pH6.0 (% of wild type) of 46.
Substance anti-CD20 IgG1 Q311A (antibody) gave a FcRn pH6.0 (% of wild type) of 139.
Substance anti-CD20 IgG1 N434G (antibody) came in with a FcRn pH6.0 (% of wild type) of 358.
anti-CD20 IgG1 T256V (antibody) returned a FcRn pH6.0 (% of wild type) of 114.
Consider anti-CD20 IgG1 A339H (antibody), for which the FcRn pH6.0 (% of wild type) came out at 107.
In turn, anti-CD20 IgG1 A330R (antibody) showed a FcRn pH6.0 (% of wild type) of 121.
Still for that read-out and setting: with anti-CD20 IgG1 Q438L (antibody) the figure was 200; with anti-CD20 IgG1 D376F (antibody), 116; with anti-CD20 IgG1 P343K (antibody), 232.
In the case of anti-CD20 IgG1 E382L (antibody), the FcRn pH6.0 (% of wild type) was found to be 126.
Substance anti-CD20 IgG1 I377K (antibody) returned a FcRn pH6.0 (% of wild type) of 167.
In the case of anti-CD20 IgG1 E430A (antibody), the FcRn pH6.0 (% of wild type) is 179.
anti-CD20 IgG1 S440M (antibody) registered a FcRn pH6.0 (% of wild type) of 80.
In the case of anti-CD20 IgG1 L314Y (antibody), the FcRn pH6.0 (% of wild type) was 64.
Take anti-CD20 IgG1 E382S (antibody): the FcRn pH6.0 (% of wild type) was 151.
Still for that read-out and setting: for anti-CD20 IgG1 G341T (antibody) the value was 68.
On to anti-CD20 IgG1 307E376V (antibody), for which the FcRn6.0 (% of wild type) worked out at 480.
In turn, anti-CD20 IgG1 V279G (antibody) yielded a FcRn pH6.0 (% of wild type) of 256.
As to anti-CD20 IgG1 Q311I (antibody), the FcRn pH6.0 (% of wild type) was 437.
The same measure, in the same setting: with anti-CD20 IgG1 S440H (antibody) the figure was 110.
anti-CD20 IgG1 P343T (antibody) yielded a FcRn pH6.0 (% of wild type) of 126.
anti-CD20 IgG1 S440F (antibody) came in with a FcRn pH6.0 (% of wild type) of 87.
anti-CD20 IgG1 R292E (antibody) yielded a FcRn pH6.0 (% of wild type) of 65.
anti-CD20 IgG1 G237R (antibody) had a FcRn pH6.0 (% of wild type) of 56.
Still for that read-out and setting: with anti-CD20 IgG1 T307M (antibody) the figure was 302; with anti-CD20 IgG1 D249L (antibody), 15; with anti-CD20 IgG1 Q386K (antibody), 115.
Turning to anti-CD20 IgG1 N286F (antibody), the FcRn pH6.0 (% of wild type) stood at 307.
anti-CD20 IgG1 P238G (antibody) displayed a FcRn pH6.0 (% of wild type) of 66.
anti-CD20 IgG1 272R279L (antibody) gave a FcRn6.0 (% of wild type) of 156.
With anti-CD20 IgG1 N434I (antibody), the FcRn pH6.0 (% of wild type) is 6.
As for anti-CD20 IgG1 257I430Q (antibody), the FcRn6.0 (% of wild type) was 304.
With anti-CD20 IgG1 D249N (antibody), the FcRn pH6.0 (% of wild type) turned out to be 112.
Take anti-CD20 IgG1 Y373D (antibody): the FcRn pH6.0 (% of wild type) is 74.
As to anti-CD20 IgG1 251F332E (antibody), the FcRn6.0 (% of wild type) was determined as 72.
anti-CD20 IgG1 P238E (antibody) showed a FcRn pH6.0 (% of wild type) of 76.
Same read-out and setting: with anti-CD20 IgG1 S440R (antibody) the figure was 88.
In turn, anti-CD20 IgG1 G341M (antibody) returned a FcRn pH6.0 (% of wild type) of 79.
anti-CD20 IgG1 P247H (antibody): the FcRn pH6.0 (% of wild type) was found to be 35.
The same measure, in the same setting: with anti-CD20 IgG1 D376N (antibody) the figure was 94; with anti-CD20 IgG1 G341E (antibody), 50.
anti-CD20 IgG1 258D286F (antibody) displayed a FcRn6.0 (% of wild type) of 445.
